According to patent US20250333542A1 (Hoffmann-La Roche, published 2025):

Experiments:
[1] = target: T1, Fc (kih)-IFNGR1 monomer (P1AF7104) (UniProt P15260 18-245); experiment: SPR (Biacore 8K, 25 C), biotinylated Fc(kih)-IFNG captured on SA chip, Fc(kih)-IFNGR1 monomer as analyte, 1:1 Langmuir fit
T1 construct: Used as the soluble analyte in SPR; not shown: Fc (kih) part
T1 sequence (P15260 whole entry, species assumed, looked up): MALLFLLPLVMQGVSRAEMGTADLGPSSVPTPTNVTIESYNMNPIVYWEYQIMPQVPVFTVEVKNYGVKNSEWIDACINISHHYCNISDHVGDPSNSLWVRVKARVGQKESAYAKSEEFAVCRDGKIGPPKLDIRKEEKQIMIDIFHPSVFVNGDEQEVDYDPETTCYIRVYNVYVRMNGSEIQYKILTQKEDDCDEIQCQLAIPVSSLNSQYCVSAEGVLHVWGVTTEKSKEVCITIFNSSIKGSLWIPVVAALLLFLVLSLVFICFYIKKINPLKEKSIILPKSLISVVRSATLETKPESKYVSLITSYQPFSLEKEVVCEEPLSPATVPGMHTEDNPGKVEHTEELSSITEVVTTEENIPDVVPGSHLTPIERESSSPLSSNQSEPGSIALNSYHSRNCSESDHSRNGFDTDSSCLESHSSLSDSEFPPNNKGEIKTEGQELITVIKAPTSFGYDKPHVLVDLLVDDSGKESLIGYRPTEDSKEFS
Experimental: (§1) The binding behaviour of IFNG variants towards IFNGR1 and IFNGR1/2 was assessed by surface plasmon resonance (SPR). SPR experiments were performed on a Biacore 8K device at 25° C. with HBS-EP as running buffer (0.01 M HEPES pH 7.4, 0.15 M NaCl, 3 mM EDTA, 0.005% Surfactant P20, Biacore, Freiburg/Germany). […] IFNG mutation series compounds were immobilised at a concentration of 25 nM, 80 s contact time and 10 μL/min. Immobilisation levels up to 450 resonance units (RU) were used. Subsequently, decreasing concentrations (800-3.13 nM) of Fc (kih)-IFNGR1 monomer or Fc (kih)-IFNGR1/2 heterodimer were injected as a second analyte with a flow rate of 30 μL/min over 120 seconds and dissociation was monitored for 500 s. Bulk refractive index differences were corrected for by subtracting the response obtained in a reference flow cell, where no protein was immobilised. […]
(§2) To further evaluate analogous properties of wild-type IFNG and our engineered compound with C-terminal KRKRP (SEQ ID NO:1), we determined the binding affinities of IFNG variants towards IFNG receptors by SPR. […] As second analytes, either IFNGR1 monomer (P1AF7104) or IFNGR1/2 heterodimer (P1AF8126) were passed through the flow cell at different concentrations and dissociation constants (KD) were calculated based on observed association and dissociation behaviour.

[2] = target: T2, Fc (kih)-IFNGR1/2 heterodimer (P1AF8126) (UniProt P15260 18-245; P38484 28-247, limits assumed); experiment: SPR (Biacore 8K, 25 C), biotinylated Fc(kih)-IFNG captured on SA chip, Fc(kih)-IFNGR1/2 heterodimer as analyte, 1:1 Langmuir fit; IFNG KRKRP variant, IFNGR1/2 heterodimer as analyte
T2 construct: Used as the soluble analyte in SPR; also called Fc (kih)-IFNGR1/R2 heterodimer; IFNGR1/R2; not shown: Fc (kih) chain
T2 sequence (looked up) 1: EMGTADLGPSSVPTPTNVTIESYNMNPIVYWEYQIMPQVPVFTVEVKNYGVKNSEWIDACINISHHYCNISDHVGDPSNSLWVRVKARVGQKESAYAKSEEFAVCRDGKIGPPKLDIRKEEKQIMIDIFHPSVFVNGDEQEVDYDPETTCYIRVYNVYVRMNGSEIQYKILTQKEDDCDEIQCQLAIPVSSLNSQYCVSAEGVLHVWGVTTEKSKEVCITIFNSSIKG
T2 sequence (looked up) 2: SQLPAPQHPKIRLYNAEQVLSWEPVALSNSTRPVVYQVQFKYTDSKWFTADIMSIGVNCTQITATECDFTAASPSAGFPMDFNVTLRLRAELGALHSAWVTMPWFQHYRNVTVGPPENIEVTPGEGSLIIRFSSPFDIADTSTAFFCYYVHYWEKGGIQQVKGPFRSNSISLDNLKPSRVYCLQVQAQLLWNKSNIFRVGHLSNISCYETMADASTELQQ
Experimental: as §1, §2

B1: Fc (kih)-IFNG KRKRP (P1AG1550) (Fc fusion)
chain: QDPYVKEAENLKKYFNAGHSDVADNGTLFLGILKNWKEESDRKIMQSQIVSFYFKLFKNFKDDQSIQKSVETIKEDMNVKFFNSNKKKRDDFEKLTNYSVTDLNVQRKAIHELIQVMAELSPAAKTGKRKRP
modifications: biotinylated (site not stated)
notes: Produced as a C-terminal Fc (kih)-fusion protein; not shown: Fc (kih) chain (knob: S354C, T366W; hole: Y349C, T366S, L368A, Y410V as printed) and any linker
How did the Kd [1] turn out when B1 was run?
Its Kd is 154 nM.

What about the Kd [2] of the same binder?
Its Kd is 54.4 nM.
